Consider one substance from article PMC5173035.

Assay [1] deals with M1.HpyAVI, DNA N6-adenine methyltransferase from Helicobacter pylori 26695 (Helicobacter pylori 26695). Briefly: crystal structure; cofactor-free (3.0 Å, four monomers in the asymmetric unit) and AdoMet-bound (3.1 Å, eight monomers) crystals; dimer with the two monomers related by a two-fold axis; interface analysed with PDBePISA.
For assay [2] the target is unchanged. As to the kind of experiment: SEC; Superdex 75 10/300 column on FPLC, 0.05, 0.1, 0.2, 0.5 mg/ml protein loaded; calibrated with gel filtration calibration kit LMW. (SEC sorts molecules by how far they enter the pores of the column.)

The stoichiometry N is a count of units in the complex or per binding partner. Consider “M1.HpyAVI, DNA N6-adenine methyltransferase from Helicobacter pylori 26695 (enzyme)”, for which the stoichiometry N in assay [1] and in assay [2] was 2 in each case.
